Data: the supplement of paper PMC10567573

B1: SAT2 (parent)
chain: LTEAEGWHFFCFQGEATRKLAGK
B2: DVL3 (parent)
chain: HPDPAPFCADNPSELPPPMERTGG

Variants of: B1
Assay: protein stability index of a GFP-peptide fusion (GPS, HEK-293T) (PSI 1-6); higher = more stable
Details: c terminus: native
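Also: lentivirally expressed fusions sorted by FACS into six bins by GFP to DsRed ratio, PSI derived from sequencing read proportions per bin multiplied by bin number.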

| Variant | protein stability index |
| --- | --- |
| G22P | 2.47 |
| G22Y | 2.39 |
| G22Q | 3.22 |
| G22R | 3.52 |
| G22C | 1.07 |
| G22V | 3.23 |
| G22F | 1.8 |
| G22E | 2.54 |
| G22T | 2.27 |
| G22S | 1.8 |
| G22W | 2.17 |
| G22M | 1.6 |
| G22D | 2.64 |
| L1D | 3.43 |
| L1H | 1.48 |
| L1C | 2.48 |
| L1N | 3.57 |
| L1R | 2.09 |
| R18D | 3.15 |
| R18V | 1.5 |
| R18A | 2.09 |
| R18Y | 2.21 |
| R18P | 2.58 |
| R18C | 1.92 |

| Variant | protein stability index |
| --- | --- |
| R18N | 2.59 |
| R18L | 1.53 |
| R18H | 2.3 |
| Q13P | 2.94 |
| Q13K | 2.63 |
| Q13G | 1.61 |
| Q13T | 1.35 |
| Q13Y | 2.66 |
| Q13D | 3.14 |
| Q13C | 1.48 |
| Q13E | 2.89 |
| F12T | 3.88 |
| F12L | 2.48 |
| F12Y | 2.48 |
| F12S | 3.73 |
| F12D | 4.53 |
| F12P | 3.85 |
| F12N | 3.84 |
| F12M | 2.5 |
| F12E | 3.33 |
| F12H | 3.95 |
| F12K | 4.01 |
| C11M | 2.6 |
| C11E | 3.27 |

| Variant | protein stability index |
| --- | --- |
| C11Q | 3.46 |
| C11G | 3.13 |
| C11T | 2.94 |
| C11R | 2.33 |
| E3A | 1.79 |
| E3H | 1.67 |
| E3N | 1.48 |
| E3R | 1.43 |
| E3K | 1.25 |
| E3M | 2.56 |
| E3G | 1.78 |
| E3D | 2.49 |
| E3Y | 2.18 |
| E3S | 1.75 |
| E3Q | 1.82 |
| E3W | 1.37 |
| E3P | 1.74 |
| G14C | 1.19 |
| G14V | 2.33 |
| G14T | 2.1 |
| G14L | 1.73 |
| G14S | 1.73 |
| G14P | 1.83 |
| G14D | 3.17 |

| Variant | protein stability index |
| --- | --- |
| G14W | 2.8 |
| G6K | 2.15 |
| G6A | 1.58 |
| G6D | 3.48 |
| G6H | 2.14 |
| L20S | 2.94 |
| L20Q | 3.29 |
| L20F | 1.97 |
| L20D | 2.99 |
| L20K | 3.3 |
| L20P | 3.22 |
| L20H | 2.64 |
| L20I | 2.34 |
| E15H | 2.13 |
| E15F | 1.57 |
| E15L | 3.25 |
| E15S | 1.74 |
| E15P | 1.97 |
| E15G | 2.09 |
| E15M | 1.57 |
| T17V | 2.21 |
| T17Y | 2.01 |
| T17G | 2.15 |
| T17H | 1.77 |

| Variant | protein stability index |
| --- | --- |
| T17I | 1.35 |
| T17S | 1.48 |
| T17D | 2.79 |
| T17N | 2.53 |
| K23T | 2.33 |
| K23Q | 2.81 |
| K23V | 1.49 |
| K23D | 2.06 |
| K23H | 1.49 |
| K23M | 1.01 |
| K23C | 2.15 |
| K23N | 2.85 |
| F9E | 4.43 |
| F9M | 2.51 |
| F9P | 4.17 |
| F9S | 3.56 |
| F9L | 1.85 |
| F9C | 3.12 |
| F9D | 4.19 |
| T2Y | 1.56 |
| T2H | 2.32 |
| T2R | 2.14 |
| T2S | 2.34 |
| T2M | 2.71 |

| Variant | protein stability index |
| --- | --- |
| T2A | 1.38 |
| T2N | 2.75 |
| T2C | 1.99 |
| T2G | 1.76 |
| T2I | 3.08 |
| A21K | 2.5 |
| A21R | 1.71 |
| A21C | 2.57 |
| A21M | 1.91 |
| A21F | 1.77 |
| A21I | 3.52 |
| E5A | 2.17 |
| E5T | 1.94 |
| E5I | 3.25 |
| E5P | 1.86 |
| E5M | 4.97 |
| E5S | 2.17 |
| E5V | 1.36 |
| E5W | 2.44 |
| E5F | 1.79 |
| E5Q | 2.16 |
| W7D | 4.63 |
| W7Q | 4.29 |
| W7S | 4.22 |

| Variant | protein stability index |
| --- | --- |
| W7P | 4.43 |
| W7K | 3.88 |
| W7L | 3.12 |
| W7V | 3.42 |
| A4T | 2.9 |
| A4W | 2.27 |
| A4R | 2.17 |
| A4V | 1.64 |
| A4L | 2.14 |
| A4M | 1.66 |
| A4H | 3 |
| F10G | 4.09 |
| F10V | 2.34 |
| F10C | 2.56 |
| F10D | 4.69 |
| F10A | 3.48 |
| F10I | 2.42 |
| F10T | 3.99 |
| F10S | 4.25 |
| F10L | 2.68 |
| F10W | 1.94 |
| F10M | 3.39 |
| H8A | 2.21 |
| H8P | 2.97 |

| Variant | protein stability index |
| --- | --- |
| H8R | 1.54 |
| H8F | 1.9 |
| H8N | 3.91 |
| K19C | 2.41 |
| K19P | 2.1 |
| K19N | 2.93 |
| K19A | 2.35 |
| K19Y | 2.11 |
| K19D | 2.76 |
| K19G | 2.25 |
| K19E | 2.68 |
| K19R | 2.23 |
| A16R | 1.98 |
| A16E | 2.79 |
| A16V | 2.3 |
| A16G | 2.38 |
| A16F | 1.59 |
| A16M | 2.1 |
| A16T | 1.68 |
| A16W | 1.08 |
| A16Q | 2.58 |
| A16H | 2.63 |
| A16D | 3.16 |

Variants of: B2
Assay: as above
Details: c terminus: a fixed tail appended

| Variant | protein stability index |
| --- | --- |
| A5Y | 3.11 |
| A5D | 3.82 |
| A5G | 2.87 |
| A5W | 2.41 |
| A5N | 3.93 |
| A5K | 2.7 |
| A5S | 2.54 |
| A5C | 2.75 |
| A5V | 3.62 |
| A5L | 2.77 |
| A5M | 1.82 |
| A5R | 2.29 |
| A5E | 3.91 |
| A5F | 2.58 |
| A5Q | 3.42 |
| A5I | 2.77 |
| N11L | 2.59 |
| P6V | 2.73 |
| P6L | 2.83 |
| P6C | 3.01 |
| P6Q | 4.12 |
| P6F | 2.48 |
| P6I | 3 |
| P6E | 4.91 |

| Variant | protein stability index |
| --- | --- |
| P6R | 2.91 |
| P6N | 4.83 |
| P6G | 3.57 |
| P6W | 3.3 |
| P6A | 2.69 |
| P6H | 3.46 |
| P6K | 3.33 |
| P6T | 3.92 |
| P6M | 2.83 |
| P6D | 5.21 |
| P6S | 3.14 |
| P6Y | 2.46 |
| G23M | 2.62 |
| G23R | 2.89 |
| G23V | 2.47 |
| G23W | 2.07 |
| C8R | 2.62 |
| C8V | 2.84 |
| C8W | 2.74 |
| C8E | 5.49 |
| C8G | 4.65 |
| P18R | 2.8 |
| P18A | 2.48 |
| P18L | 2.95 |

| Variant | protein stability index |
| --- | --- |
| P18D | 3.27 |
| P18M | 2.68 |
| P18G | 2.79 |
| P18N | 3.2 |
| P18W | 2.35 |
| P18V | 3.15 |
| P18F | 2.7 |
| P18I | 2.82 |
| P18S | 3.05 |
| P18E | 3.32 |
| P18T | 3.12 |
| P18C | 2.94 |
| P18H | 2.69 |
| P18Y | 2.61 |
| P18Q | 3.42 |
| P18K | 2.53 |
| E20G | 1.73 |
| E14G | 2.65 |
| T22V | 2.02 |
| T22E | 2.88 |
| T22G | 2.5 |
| T22R | 2.58 |
| T22L | 2.94 |
| T22D | 3.31 |

| Variant | protein stability index |
| --- | --- |
| T22W | 2.22 |
| T22M | 2.96 |
| T22K | 2.85 |
| T22A | 3.02 |
| T22Q | 2.78 |
| F7W | 2.21 |
| F7R | 5.23 |
| P16E | 3.09 |
| P16R | 2.28 |
| P16S | 3.19 |
| P16K | 2.19 |
| P16G | 3.1 |
| P16A | 3.04 |
| P16D | 2.9 |
| P16W | 2.17 |
| P16Q | 3.59 |
| P16V | 2.9 |
| P16H | 2.58 |
| P16C | 2.38 |
| P16L | 2.42 |
| P16M | 3.02 |
| P16I | 2.7 |
| G24S | 3.1 |
| P17Q | 3.02 |

| Variant | protein stability index |
| --- | --- |
| P17R | 2.62 |
| P17G | 2.6 |
| P17W | 2.54 |
| P17E | 3.41 |
| P17D | 2.93 |
| P17L | 2.76 |
| P17C | 2.52 |
| P17Y | 2.86 |
| P17S | 2.92 |
| P17I | 2.63 |
| P17V | 2.82 |
| P17K | 2.92 |
| P17H | 2.61 |
| P17F | 2.4 |
| P17M | 2.54 |
| P17N | 2.65 |
| P17A | 2.73 |
| D3W | 2.81 |
| P4F | 4.71 |
| P4A | 4.6 |
| P4Y | 4.58 |
| P4D | 5.64 |
| P4W | 5.19 |
| P4I | 4.99 |

| Variant | protein stability index |
| --- | --- |
| P4K | 5.4 |
| P4T | 4.9 |
| P4S | 5.24 |
| P4L | 4.8 |
| P4M | 5.22 |
| P4Q | 5.3 |
| P4C | 4.85 |
| P4N | 5.35 |
| P4E | 5.24 |
| P4G | 4.94 |
| P4V | 5.14 |
| P4R | 4.78 |
| P4H | 4.84 |
| P12E | 3.19 |
| P12W | 2.17 |
| P12N | 2.42 |
| P12L | 3.24 |
| P12V | 2.3 |
| P12K | 2.88 |
| P12Q | 2.86 |
| P12M | 3.54 |
| P12R | 2.95 |
| A9G | 3.27 |
